For data set [1], the system named is human bronchial epithelial cells. Type of data set: cell-based. The method, then:
Primary human airway epithelial cells were collected by enzymatic digestion of bronchial samples from lung transplants as previously described (Kondo et al., 1991; Zabner et al., 1996). Isolated airway primary cells were seeded at a density of 5×10^5 cells/cm^2 onto collagen-coated Millicell-HA culture inserts (Millipore, Bedford, Mass.). Primary cultures were grown at the air-liquid interface for more than 2 wk, at which time differentiation into a mucociliary epithelium occurs. The culture medium, used to feed only the basolateral side of the cells, contained 49% Dulbecco's modified Eagle's medium (DMEM), 49% Ham's F12, and 2% Ultraser G (BioSepra, Cedex, France).
Recombinant AAV virus was produced by a CaPO4 co-transfection protocol and was purified through three rounds of isopycnic cesium chloride ultracentrifuigation, as previously described (Duan et al., 1997). […] Typical yields were 1×10^9 particles/μl, determined on the basis of DNA slot-blot hybridization assays against plasmid standards. […] Viral preparations were evaluated for the contamination of wild type AAV (wtAAV) by immunocytochemical staining of AV.GFP3ori/Ad.CMVLacZ (Duan et al., 1998)-coinfected 293 cells with anti-Rep antibodies (American Research Products, Belmont, Mass.). […]

The next data set concerns airway epithelial cells. Description: BrdU staining of KGF-treated airway cultures. Type of data set: cell-based, human. The following applies: KGF 100 ng/ml, two consecutive days. The method, then:
Identification of proliferating airway epithelial cells were performed using bromodeoxyuridine (BrdU) labeling reagents from Zymed Laboratories (South San Francisco, Calif.). Cells were treated with recombinant human keratinocyte growth factor (rKGF; Chiron, San Diego, Calif.) at 100 ng/ml for two consecutive days. The cells were then pulse labeled for 12 hr with a 1:100 dilution of the BrdU labeling reagent prior to fixation in 10% neutral buffered formalin. Histochemical staining of BrdU incorporation into nuclei was performed according to the manufacturer's instructions. Cells were counterstained with hematoxylin and the cell culture filters were examined by en face microscopy of the apical surface.
On the technique in general: Dividing cells build labelled thymidine or BrdU into new DNA.

The test system of a further data set is epithelia. The following applies: in vivo; cited from earlier work.

B1: KGF: recombinant human keratinocyte growth factor (protein, UniProt P21781 32-194, looked up)
Fibroblast growth factor 7: CNDMTPEQMATNVNCSSPERHTRSYDYMEGGDIRVRRLFCRTQWYLRIDKRGKVKGTQEMKNNYNIMEIRTVAVGIVAIKGVESEFYLAMNKEGKLYAKKECNEDCNFKELILENHYNTYASAKWTHNGGEMFVALNQKGIPVRGKKTKKEQKTAHFLPMAIT
Take B1: the “long-term (40 day) gene expression after KGF” value in data set [1] (infection from the basal side) is listed as “inhibited twofold”. Further, in data set [1] (virus apical or basolateral), the “efficiency of rAAV transduction after KGF” value is recorded as “did not increase the efficiency of rAAV transduction”. The “cell proliferation by BrdU incorporation” value in the data set on airway epithelial cells is “significant increases in cell proliferation”. Further, the mutagenicity result in the data set on epithelia is reported as “is not mutagenic”.

The record behind these values is patent US6855549B1, “Methods and compositions for increasing the infectivity of gene transfer vectors” (The University of Iowa Research Foundation, priority 1998, dated 2005).
